Assay results from the supplement of paper PMC7877785.
± gives the uncertainty stated by the source.

Experiment: self-splicing fitness, log relative to wild type (ln ratio); higher = more splicing; Tetrahymena group I intron in knt gene, E. coli kanamycin selection, DiMSum; sequences stand for … in CUCUCU…GGAGGGAAAAGUUAUCAGGCAUGCACCUGGUAGCUAGUCUUUAAACCAAUAGAUUGCAUCGGUUUAAAAGGCAAGACCGUCAAAUUGCGGGAAAGGGGUCAACAGCCGUUCAGUACCAAGUCUCAGGGGAAACUUUGAGAUGGCCUUGCAAAGGGUAUGGUAAUAAGCUGACGGACAUGGUCCUAACCACGCAGCCAAGUCCUAAGUCAACAGAUCUUCUGUUGAUAUGGAUGCAGUUCACAGACUAAAUGUCGGUCGGGGAAGAUGUAUUCUUCUCAUAAGAUAUAGUCGGACCUCUCCUUAAUGGGAGCUAGCGGAUGAAGUGAUGCAACACUGGAGCCGCUGGGAACUAAUUUGUAUGCGAAAGUAUAUUGAUUAGUUUUGGAGUACUCGUGGUCG
Method in brief: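 DiMSum derived fitness as the error-weighted combination of fold changes across replicates, kanamycin versus no kanamycin, normalised to wild type. E. coli BL21(DE3) held the library, which randomised all eight P1ex-region intron nucleotides within the knt kanamycin-resistance gene on pET-22b(+). Six replicate transformations grew overnight at 37°C or 30°C on LB agar with or without 25 μg/mL kanamycin, also containing 100 μg/mL carbenicillin, 50 μM IPTG and 0.2% rhamnose, and pooled colonies were amplicon-sequenced on an Illumina HiSeq 2500.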

| Sequence | self-splicing fitness (ln) (30 °C) | self-splicing fitness (ln) (37 °C) |
| --- | --- | --- |
| CGAUAGCAAUAUUACGAUCU | -0.235 ± 0.11 | 0.177 ± 0.12 |
| CGAUAGCAAUAUUACGAUUU | -2.52 ± 0.14 | -0.871 ± 0.14 |
| CGAUAGCAAUAUUACGCAGA | -3.24 ± 0.21 | -1.75 ± 0.13 |
| CGAUAGCAAUAUUACGCAGG | -1.6 ± 0.092 | -1.25 ± 0.1 |
| CGAUAGCAAUAUUACGCAUC | -3.16 ± 0.31 | -1.94 ± 0.38 |
| CGAUAGCAAUAUUACGCGUA | -2.42 ± 0.41 | -2.14 ± 0.24 |
| CGAUAGCAAUAUUACGCGUC | – | -1.76 ± 0.47 |
| CGAUAGCAAUAUUACGCUCU | -0.961 ± 0.12 | 0.447 ± 0.12 |
| CGAUAGCAAUAUUACGCUGU | -3.12 ± 0.4 | -2.15 ± 0.31 |
| CGAUAGCAAUAUUACGCUUG | -2.88 ± 0.2 | -1.04 ± 0.16 |
| CGAUAGCAAUAUUACGGGCU | – | 0.128 ± 0.17 |
| CGAUAGCAAUAUUACGGGUG | -0.832 ± 0.069 | -0.736 ± 0.074 |
| CGAUAGCAAUAUUACGGUUU | -3.43 ± 0.15 | -0.7 ± 0.1 |
| CGAUAGCAAUAUUACGUGAA | -4.38 ± 0.22 | -2.16 ± 0.16 |
| CGAUAGCAAUAUUACGUGCC | -1.8 ± 0.15 | 0.00354 ± 0.14 |
| CGAUAGCAAUAUUACGUGGC | -2.8 ± 0.21 | -3.36 ± 0.46 |
| CGAUAGCAAUAUUACGUGUA | -2.23 ± 0.12 | -2.15 ± 0.2 |
| CGAUAGCAAUAUUACGUUCA | -0.0649 ± 0.082 | 0.251 ± 0.1 |
| CGAUAGCAAUAUUACGUUCC | -1.5 ± 0.25 | -1.51 ± 0.32 |
| CGAUAGCAAUAUUACGUUUG | -2.29 ± 0.081 | -0.812 ± 0.081 |
| CGCAAGCAAUAUUACGACCA | -0.724 ± 0.1 | -0.453 ± 0.12 |
| CGCAAGCAAUAUUACGACCG | -1.4 ± 0.11 | -0.441 ± 0.14 |
| CGCAAGCAAUAUUACGACGC | -3.59 ± 0.2 | -2.03 ± 0.16 |
| CGCAAGCAAUAUUACGACGU | -1.73 ± 0.068 | -0.28 ± 0.069 |
| CGCAAGCAAUAUUACGAGGU | -4.03 ± 0.23 | -1.82 ± 0.16 |

| Sequence | self-splicing fitness (ln) (30 °C) | self-splicing fitness (ln) (37 °C) |
| --- | --- | --- |
| CGCAAGCAAUAUUACGAUGC | – | -2.4 ± 0.32 |
| CGCAAGCAAUAUUACGCACG | -2.96 ± 0.23 | -1.24 ± 0.17 |
| CGCAAGCAAUAUUACGCACU | -0.441 ± 0.092 | -0.325 ± 0.11 |
| CGCAAGCAAUAUUACGCCAG | -1.01 ± 0.094 | -0.582 ± 0.13 |
| CGCAAGCAAUAUUACGCCAU | -3.9 ± 0.26 | -2.61 ± 0.19 |
| CGCAAGCAAUAUUACGCCCC | -1.49 ± 0.36 | -0.475 ± 0.38 |
| CGCAAGCAAUAUUACGCCUC | -3.64 ± 0.22 | -1.78 ± 0.15 |
| CGCAAGCAAUAUUACGCGCU | -3.78 ± 0.16 | -1.41 ± 0.12 |
| CGCAAGCAAUAUUACGCGGU | -2.75 ± 0.11 | -2.44 ± 0.17 |
| CGCAAGCAAUAUUACGCUAU | -3.23 ± 0.17 | -3.15 ± 0.22 |
| CGCAAGCAAUAUUACGCUGG | -3.06 ± 0.31 | -2.09 ± 0.25 |
| CGCAAGCAAUAUUACGGAGC | -2.49 ± 0.17 | -2.24 ± 0.24 |
| CGCAAGCAAUAUUACGGCCA | -1.14 ± 0.13 | -0.716 ± 0.12 |
| CGCAAGCAAUAUUACGGUAU | -4.65 ± 0.19 | -2.42 ± 0.13 |
| CGCAAGCAAUAUUACGGUGU | -3.42 ± 0.16 | -3.25 ± 0.23 |
| CGCAAGCAAUAUUACGUACC | -3.02 ± 0.17 | -1.8 ± 0.17 |
| CGCAAGCAAUAUUACGUCAG | -0.378 ± 0.053 | 0.1 ± 0.069 |
| CGCAAGCAAUAUUACGUCCA | -1.46 ± 0.089 | -0.939 ± 0.1 |
| CGCAAGCAAUAUUACGUGCU | -0.881 ± 0.069 | -0.489 ± 0.081 |
| CGCAAGCAAUAUUACGUUCU | -1.53 ± 0.076 | -1.33 ± 0.087 |
| CGCCAGCAAUAUUACGAACU | – | 0.274 ± 0.25 |
| CGCCAGCAAUAUUACGACGC | -3.21 ± 0.2 | -2.97 ± 0.35 |
| CGCCAGCAAUAUUACGCAAA | -2.31 ± 0.19 | -2.64 ± 0.26 |
| CGCCAGCAAUAUUACGCACC | -2.37 ± 0.17 | -2.33 ± 0.35 |
